Measured values taken from patent publication US20040258659A1.

Target: CCR5, P51681
Assay: competitive radioligand binding on whole CHO-CCR5 cells at 4 C, 12 pM [125I]MIP-1α tracer
Conditions: remark: other sources report otherwise

Chain of CCR5, P51681 (P51681 whole entry): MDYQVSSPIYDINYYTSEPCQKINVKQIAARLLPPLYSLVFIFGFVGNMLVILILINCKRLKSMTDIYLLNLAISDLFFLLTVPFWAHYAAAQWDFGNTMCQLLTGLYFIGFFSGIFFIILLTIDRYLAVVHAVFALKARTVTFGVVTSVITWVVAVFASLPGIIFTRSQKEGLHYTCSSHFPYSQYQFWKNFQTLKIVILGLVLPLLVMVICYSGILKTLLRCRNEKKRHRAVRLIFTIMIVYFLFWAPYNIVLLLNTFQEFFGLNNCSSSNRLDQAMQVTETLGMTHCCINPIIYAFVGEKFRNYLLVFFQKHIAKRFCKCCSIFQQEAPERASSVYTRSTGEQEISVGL

IC50: 1.7 nM
B1: RANTES, P13501 24-91 (ligand, human, UniProt P13501 24-91, looked up)
chain: SPYSSDTTPCCFAYIARPLPRAHIKEYFYTSGKCSNPAVVFVTRKNRQVCANPEKKWVREYINSLEMS
